{"source": "paper PMC11739670", "about": "(2024)", "binders": {"B1": {"name": "soluble human CD8αβ-Fc heterodimer (Fc fusion)", "chain 1": "not shown", "chain 2": "LQQTPAYIKVQTNKMVMLSCEAKISLSNMRIYWLRQRQAPSSDSHHEFLALWDSAKGTIHGEEVEQEKIAVFRDASRFILNLTSVKPEDSGIYFCMIVGSPELTFGKGTQLSVVDFLPTTAQPTKKSTLKKRVCRLPRPETQKGPLCSP"}}, "key": {"[1]": {"molecular_target": "HLA-A*03:01 peptide-MHC class I (biotinylated pMHCI) (human | , biotin on the Avi-tag (BirA ligase))", "assay": "SPR; average over HLA-A3 peptides, 25°C"}, "[2]": {"molecular_target": "HLA-A*01:01 peptide-MHC class I (biotinylated pMHCI) (human | , biotin on the Avi-tag (BirA ligase))", "assay": "SPR; average over HLA-A1 peptides, 25°C"}, "[3]": {"molecular_target": "HLA-A*24:02 peptide-MHC class I (biotinylated pMHCI) (human | , biotin on the Avi-tag (BirA ligase))", "assay": "SPR; average over HLA-A24 peptides, 25°C"}}}
{"binder": "B1", "values": [{"measurement": "Kd", "setting": "[1]", "result": 133, "unit": "µM"}, {"measurement": "Kd", "setting": "[2]", "result": 120, "unit": "µM"}, {"measurement": "Kd", "setting": "[3]", "result": 214, "unit": "µM"}]}
